According to patent US20110039770A1, “INHIBITORS OF PROTEIN KINASE C ISOFORMS AND USES THEREOF” (PHARMAGAP INC., priority 2005, published 2011):
Blank lines part the entries; values can stand above or below the molecule they belong to. Where a SMILES comes first, the peptide text is derived from it. [ ]: non-standard residue; d: D form.

Biological target: T1, PKC-ε (Homo sapiens, UniProt Q02156)
T1 sequence (Q02156 1-737): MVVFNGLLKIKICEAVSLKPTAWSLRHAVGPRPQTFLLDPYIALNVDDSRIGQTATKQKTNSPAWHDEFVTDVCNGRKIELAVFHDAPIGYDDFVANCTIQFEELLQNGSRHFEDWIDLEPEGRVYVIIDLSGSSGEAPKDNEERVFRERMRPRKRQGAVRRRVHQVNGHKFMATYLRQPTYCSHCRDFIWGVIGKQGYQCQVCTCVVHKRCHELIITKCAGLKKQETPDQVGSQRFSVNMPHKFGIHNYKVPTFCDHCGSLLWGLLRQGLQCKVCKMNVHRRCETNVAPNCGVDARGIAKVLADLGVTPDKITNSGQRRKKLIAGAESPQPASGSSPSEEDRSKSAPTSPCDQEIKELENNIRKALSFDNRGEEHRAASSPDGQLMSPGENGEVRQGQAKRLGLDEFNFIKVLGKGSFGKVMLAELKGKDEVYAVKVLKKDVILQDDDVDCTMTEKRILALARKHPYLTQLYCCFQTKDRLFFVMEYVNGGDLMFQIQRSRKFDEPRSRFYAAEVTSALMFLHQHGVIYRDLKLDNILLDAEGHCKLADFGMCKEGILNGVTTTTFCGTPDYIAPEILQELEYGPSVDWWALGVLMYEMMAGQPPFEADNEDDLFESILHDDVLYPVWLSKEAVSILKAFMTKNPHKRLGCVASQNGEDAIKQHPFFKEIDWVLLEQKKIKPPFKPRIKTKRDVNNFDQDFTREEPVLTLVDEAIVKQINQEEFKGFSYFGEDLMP
Experiment: ELISA-based competitive binding assay with purified PKC isoform
Parameters: key to Affinity for PKC isoform ε: —: no detectable affinity; Low to very low affinity at 10X or 20X or both PRE concentrations in at least one cell line in the cell extract assay; Low affinity in purified isoform assay.; Moderate affinity at 10X or 20X or both PRE concentrations in at least one cell line in the cell extract assay.; High affinity at 10X or 20X or both PRE concentrations in at least one cell line in the cell extract assay; High affinity in purified isoform assay
Details: for Affinity for PKC isoform ε: Purified isoform; for calculated binding capacity (100-% n, DMSO apparent binding subtracted) / inhibition at 50 µM / inhibition at 100 µM: purified PKC-ε; for inhibition at 50 µM / inhibition at 100 µM: read-out: calculated binding capacity (100-% n, DMSO apparent binding subtracted)
Description: Peptides PRE 1, 2, 3, 4, 5, 6, 7, 8, 9, 10, 11, 12 and 13 (see Table 3) were tested for their ability to interfere with binding of PKC isoform-specific antibodies to their target PKC isoforms using a competitive binding assay and purified PKC isoforms.
Procedure: Competitive binding was assessed using a 96 well plate ELISA-based assay as described below.
Greiner 96 well ELISA plates were coated with the appropriate PKC isoform diluted in PBSN (PBS with Calcium/Magnesium+0.05% Sodium azide w/w). 50 μL/well at 250 ng/mL was used. Control wells contained PBSN only. Plates were incubated overnight at 4° C.
The plates were washed 3 times with 200 μL of dH2O per well, then 100 μL of blocking solution was added per well and the plate incubated for 1 h at 37° C. The washing steps with dH2O were repeated and 50 μL of the appropriate PRE solution (PRE stock solution [20 mM in DMSO] diluted in PBSN) was added and the plate incubated for 1 h at room temperature.
After incubation, 5 μL of 1.1:400 anti-PKC (isoform specific antibody) was added per well (to provide a final concentration of 1:4000). For PKC-epsilon, 1.1:800 dilution was used and for PKC-zeta a 1.1:100 dilution was used due to high and low binding affinity, respectively. The plates were then incubated 1 h at room temperature, followed by washing with dH2O as described above.
50 μL of 1:1000 dilution of Alkaline Phosphatase (AP) conjugated antibody (anti-rabbit for all except zeta, which was anti-goat) was then added and the plate incubated for 1 h at room temperature. Washing with dH2O was then repeated. Finally, 100 μL of pNPP solution in pNPP buffer (2 mM MgCl2, 100 mM Sodium bicarbonate in water, pH 9.8) was added to all wells and incubated for 8 minutes for α, βI, βII ε, and ζ, or for 15-20 mins for δ (until sufficient coloration is observed). The reaction was stopped by addition of Stop solution (2N NaOH) and the absorbance at 405 nm was read on a Galaxy Plate reader.
Controls were PKC without PRE; blank controls, and controls containing the final concentrations of DMSO used for solubilizing the PREs. The non-specific binding capacity related to DMSO was also measured.
The antibodies used were as follows: anti-PKC α (Cat. No. SC-208); anti-PKC βI (Cat. No. SC-209); anti-PKC βII (Cat. No. SC-210); anti-PKC δ (Cat. No. SC-213); anti-PKC ε (Cat. No. SC-214); anti-PKC ζ (Cat. No. SC-216-G) (all from Santa Cruz Biotechnology, Inc.). The AP-conjugated antibodies were obtained from Jackson Immuno Research Laboratories (West Grove, Pa.).
Calculations: The OD values measured at 405 nm represent the free PKC coated per well.
OD405 PKC alone−Blank OD405 of each sample=OD405 coated isoform
(OD405 of sample X/OD405 coated isoform)×100=% n that represents the percentage of X binding compared to control.
100-% n measures the relative binding capacity of X towards the tested isoform.
The apparent binding capacity of the DMSO samples was then subtracted from X binding capacity.
All measurements were made in triplicate and the values in the table represent the averaged calculated binding capacity values after subtraction of the DMSO apparent binding capacity (averaged from 12 values, respectively 10.80, 11.20 and 16.40 corresponding to the concentrations of DMSO used to dilute the […] at 200, 100 and 50 μM respectively). The results allow for quantitative comparison of the binding capacity of each PRE towards an individual isoform within each table, but not among isoforms due to differences in sensitivity of the specific antibodies toward the secondary antibody. This applies particularly to PKC-delta. As noted above, the colour development duration was increased 2-3 times and, as a result, the OD405 measurements may be overestimated for this isoform.

Affinity for PKC isoform ε: —
Molecule: Ac-RDAQNLI-NH2 [PRE 13]

calculated binding capacity (100-% n, DMSO apparent binding subtracted) (PRE 50 μM): 0.91%
calculated binding capacity (100-% n, DMSO apparent binding subtracted) (PRE 200 μM): 1.75%
Affinity for PKC isoform ε: —
Molecule: Ac-ISIGILNQADK-NH2 [PRE 10]

calculated binding capacity (100-% n, DMSO apparent binding subtracted) (PRE 50 μM): 16.35%
calculated binding capacity (100-% n, DMSO apparent binding subtracted) (PRE 100 μM): 8.53%
Affinity for PKC isoform ε: L
Molecule: Ac-isigilqnadk-NH2 (Ac-[dI][dS][dI]G[dI][dL][dQ][dN][dA][dD][dK]-NH2; SMILES CC[C@@H](C)[C@@H](NC(C)=O)C(=O)N[C@H](CO)C(=O)N[C@@H](C(=O)NCC(=O)N[C@@H](C(=O)N[C@H](CC(C)C)C(=O)N[C@H](CCC(N)=O)C(=O)N[C@H](CC(N)=O)C(=O)N[C@H](C)C(=O)N[C@H](CC(=O)O)C(=O)N[C@H](CCCCN)C(N)=O)[C@H](C)CC)[C@H](C)CC) [PRE 9]

Affinity for PKC isoform ε: L
Molecule: Ac-RDAQNLIGISI-NH2 [PRE 11]

Affinity for PKC isoform ε: —
Molecule: Ac-KDAQNLI-NH2 [PRE 12]

Second part, the molecule before the results:

Molecule: Ac-ISIGILQNADK-NH2 (not fully specified; printed as Ac-ISIGILQNADK-NH2) [PRE 7]
Affinity for PKC isoform ε: L

Molecule: RRKKGGKDFVVKR [PRE 1]
calculated binding capacity (100-% n, DMSO apparent binding subtracted) (PRE 100 μM): 5.47%
calculated binding capacity (100-% n, DMSO apparent binding subtracted) (PRE 200 μM): 0.83%
Affinity for PKC isoform ε: —

Molecule: CC[C@H](C)[C@H](NC(=O)[C@H](CO)NC(=O)[C@@H](NC(=O)CNC(=O)[C@@H](NC(=O)[C@H](CC(C)C)NC(=O)[C@H](CC(N)=O)NC(=O)[C@H](CCC(N)=O)NC(=O)[C@H](C)NC(=O)[C@H](CC(=O)O)NC(=O)[C@H](CCCCN)NC(C)=O)[C@@H](C)CC)[C@@H](C)CC)C(N)=O [PRE 4, Ac-KDAQNLIGISI-NH2] (Ac-KDAQNLIGISI-NH2)
inhibition at 50 µM (PRE 50 μM): 0%
inhibition at 100 µM (PRE 100 μM): 0%
Affinity for PKC isoform ε: —

Molecule: CC[C@H](C)[C@H](NC(=O)[C@H](CO)NC(=O)[C@@H](NC(=O)CNC(=O)[C@@H](NC(=O)[C@H](CC(C)C)NC(=O)[C@H](CC(N)=O)NC(=O)[C@H](CCC(N)=O)NC(=O)[C@H](C)NC(=O)[C@H](CC(=O)O)NC(=O)CNC(=O)CNC(=O)[C@H](CCCCN)NC(=O)[C@@H](NC(=O)[C@H](CCC(=O)O)NC(=O)[C@H](CCC(N)=O)NC(=O)[C@@H](NC(=O)CNC(=O)[C@H](CCCCN)NC(=O)[C@H](C)NC(C)=O)[C@@H](C)CC)C(C)C)[C@@H](C)CC)[C@@H](C)CC)C(N)=O [PRE 3] (Ac-AKGIQEVKGGDAQNLIGISI-NH2)
Affinity for PKC isoform ε: H

Molecule: CC[C@H](C)[C@H](NC(=O)[C@H](CO)NC(=O)[C@@H](NC(=O)CNC(=O)[C@@H](NC(=O)[C@H](CC(C)C)NC(=O)[C@H](CC(N)=O)NC(=O)[C@H](CCC(N)=O)NC(=O)[C@H](C)NC(=O)[C@H](CC(=O)O)NC(=O)[C@H](CCCCN)NC(=O)CNC(=O)CNC(=O)[C@H](CCCCN)NC(=O)[C@@H](NC(=O)[C@H](CCC(=O)O)NC(=O)[C@H](CCC(N)=O)NC(=O)[C@@H](NC(=O)CNC(=O)[C@H](CCCCN)NC(=O)[C@H](C)NC(C)=O)[C@@H](C)CC)C(C)C)[C@@H](C)CC)[C@@H](C)CC)C(N)=O [PRE 5] (Ac-AKGIQEVKGGKDAQNLIGISI-NH2)
inhibition at 50 µM (PRE 50 μM): 0%
inhibition at 100 µM (PRE 100 μM): 0%
Affinity for PKC isoform ε: —

Molecule: ILEDKGGDAQNLIGISI [PRE 8]
Affinity for PKC isoform ε: —

Molecule: Ac-KDANQLIGISI-NH2 [PRE 6]
calculated binding capacity (100-% n, DMSO apparent binding subtracted) (PRE 50 μM): 2.61%
calculated binding capacity (100-% n, DMSO apparent binding subtracted) (PRE 100 μM): 0.46%
Affinity for PKC isoform ε: —
